The values that follow come from PMC8967717 (Nature, 2022).

Numbering of substitutions follows the chain as printed.

First the molecules themselves.
B1: XGV050 (antibody, V domains shown)
VH: EVQLVESGGGLVQPGGSLRLSCAASGFTFSRYDMHWVRQAAGKGLEWVSGIGAPGDTYYAGSVKGRFTISRENAKTSLHLQMNNLRAGDTAVYYCTRGWFGENYMDVWGKGTTVTVSS
VL: EIVLTQSPATLSLSPGERATLSCRASQSVSNHLAWFQQKPGQSPRLLIYDASNRATGIPARFSGSGSGTDFTLTISSLEPEDFAIYYCHQRSNWPTFGQGTKVEIK
B2: XGV042 (antibody, V domains shown)
VH: QITLKESGPTLVKPTQTLTLTCTFSGLSMTTSGVGVGWIRQPPGKALEWLALIYWDDDKRYSPFLKSRLTITKDTSKNQVVLTMTNMDPADTGTYFCAHHTIPSIFDHWGQGTLVTVSS
VL: QSALTQPASVSGSPGQSITISCTATSSDVGVYNYVSWYQQYPGKAPRLIIFEVSNRPSGVSSRFSGSKSGYTASLTISGLQTDDEADYYCSSYTTTSTVFGGGTKLTVL
B3: XGv177 (antibody, V domains shown)
VH: EVQLVESGGGLIQPGGSLRLSCAASGVTVSSNYMTWVRQAPGKGLDWVSVIYSGGSTFYADSVKGRFTISRDNSKNTLYLQMNSLRVEDTAVYYCARDLVDYGLDVWGQGTTVTVSS
VL: DIQLTQSPSFLSASVGDRVTITCRASQGIASYLAWYQQKPGKPPKLLIYAASTLQSGVPTRFSGSGSGTEFTLTITSLQPEDFATYYCQLLSRHPPTFGGGTKVEI
B4: XGv266 (antibody, V domains shown)
VH: QITLKESGPTLVRPTQTLTLTCTFSGLSLSAPAEGVGWIRQPPGKALEWLALIYWEGDQRYSPSLKSRLTITKDTSKKQVVLTMTNMDPVDTATYYCARHSVATIFDFWGQGTLVTVSS
VL: QSALTQPASVSGSPGQSITISCTGTSSDVGCCNYVSWYQHHPGKAPKLMIYEVTNRPSGISDRFSGSKSGNTASLTISGLQAEDEAAYYCSSYTTSTARVVFGGGTKLTVL
B5: XGv285 (antibody, V domains shown)
VH: QVQLVQSGAEVKKPGASMKVSCKASGYTFISYYMHWVRQAPGQELEWMGIINPSGGSTSYAQKFQGRVTMTRDTSTSTVYMELRSLRSEDTAVYYCARAEGSSWLGWFDPWGQGTLVTVSS
VL: QSVLTQPPSASGTPGQRVTISCSGSSSNIGSNLVYWYQHLPGTAPKLLIYKNTQRPSGVPDRFSGSKSGTSASLAISGLRSDDEGDYYCAAWDDGLSGSGWVFGGGTKVT
B6: XGv286 (antibody, V domains shown)
VH: QVQLVQSGAEVKKPGASVKVSCKASGYTFSSYYIHWVRQAPGQGPEWMAIINPGDGGASYAQKFQGRVTLTRDTSTSTLYMELSSLRSEDTAVYYCARAEGSSWLGWFDPWGQGTLVTVSS
VL: B5 VL with L33Y, H39Q, K51R, T53N, K67R, D82E, G85A, V109L
B7: XGv290 (antibody, V domains shown)
VH: B5 VH with M18V, I30K, S31N, Y33H, E44G, S57G, T58S, R72G, R84S
VL: B5 VL with L33Y, H39Q, L47V, K51R, T53N, D82E, G85A, D86E, V102L, V109L
B8: XGv074 (antibody, V domains shown)
VH: EVQLVESGGGLIQPGGSLRLSCAASGITVSANYMSWVRQAPGKGLEWVSVIYSGGSTYYADSVKGRFTISRDHSKNTLYLQMKNLRAEDTAVYYCARDRGSSGYLGDQPYEYWGQGTLVTVSS
VL: DIQMTQSPSSLSASVGDRVTITCQASQDINKYLNWYQQKPGKAPKLLIYGASNLETGVPSRFSGSGSGTDFTFTISSLRPEDIATYYCQQYDPLPVTFGGGTRVEIK
B9: XGV031 (antibody, V domains shown)
VH: QVQLVQSGAEVKKPGSSVKVSCKASGGTFSNYALSWVRQAPGQGLEWMGGIIPIFGTTNYAQNFQGRVTITADESTSTAYMELSSLRSEDTAVYYCARLDGYSFGHNRYYQDGMDDWGQGTTVTVSS
VL: DIQMTQSPSSLSASVGDRVTITCRASQAIRSDLGWYQQKPGKAPKCLIYAASTLQSGVPSRFSGSGSGTEFTLTISSLQPEDFATYYCLQQNIYPRTFGQGTKVEI
B10: XGv055 (antibody, V domains shown)
VH: B9 VH with N31S, N63K, T76S
VL: DIQMTQSPSSLSASVGDRVTITCRASQGIRNDLGWYQQKPGKAPKCLIYAASTLQSGVPSRFSGSGSGTEFTLTISSLQPEDFATYYCLQQNIYPRTFGQGTKVEIK
B11: XGv051 (antibody, V domains shown)
VH: B9 VH with N63K, N107D, Q119P
VL: B9 VL with S31N, Y87F
B12: XGv053 (antibody, V domains shown)
VH: B9 VH with N31S, S35T, N63K, S84T
VL: B10 VL with G28D
B13: XGv261 (antibody, V domains shown)
VH: QLQLQESGPGLVRPSETLSLTCTVSGGSITDSGYYWGWIRQPPGKGLEWIGNIFYSGSTYYNPSLKSRVTISVDTSKNQFSLRLSSVTAADTAVYYCAREIGIIDYWGQGSLVIVSS
VL: DIQMTQSPSSLSASVGDRVTITCRASQGISNSLAWYQQKPGKAPKLLLYGASTLESGVPSRFSGSGSGTHFTLTISSLQPEDFATYFCQQYYSSPPRTFGGGTKVEI
B14: XGV016 (antibody, V domains shown)
VH: QVQLVQSGTEVRKPGASVTVSCKASGYTFTTYHMHWVRRAPGQGLEWMGIIDPGTGGASYPQKFRGRVTLTRDTSTNTVYMELSSLRFQDTAIYYCARAEGSSWLGWFDPWGQGTLVTVSS
VL: QSVLTQPPSASGTPGQRVSISCSGSSSNIGTNYVYWYQQLPGTAPKLLIYKNNQRPSGVPDRFSGSKSGTSASLAISGLRSEDEADYFCASWDNGLSGSGWVFGGGTKLTV
B15: XGv288 (antibody, V domains shown)
VH: B6 VH with S30T, S31N, P45L, G54S, D55G, Q62H, L70M, S84I, E89D, V117I
VL: B14 VL with S19T, T31S, K51R, N53A, F88Y, S91A, N94D
B16: XGv287 (antibody, V domains shown)
VH: QVQLVQSGAEVKKPGASVKVSCKTSGYTFTTYYMHWVRQAPGQGLEWMGIINPSDGSTNYAQKFQDRVTLTKDTSTSTFYMELSSLTSEDTAKYYCARAEGSSWLGWFDPWGQGTLVTVSS
VL: QSVLTQPPSASGTPGQRVTISCSGSNSNIGNHFVYWYQQLPGKAPKLLIYRNNQRPSGVPDRFSGSKSGTSASLAISGLRSEDEADYYCASWNDGLSASGWVFGGGTKLTV
B17: XGv291 (antibody, V domains shown)
VH: QVQLVQSGAEVKKPGASVEISCKASGYSFTKYYVHWVRQAPGQGLEWMGIVNPNGGASYAQKFQGRVTMTSDTSTTTFYMEVSGLRSDDTAVYYCARAEGSSWLGWFDPWGQGTLVTVSS
VL: B16 VL with N26T, N31S, H32K, F33D, K43T, V59A, G65A, S91V, N93D, V102L
B18: XGV017 (antibody, V domains shown)
VH: EVQLVESGGGLIQPGGSLRLSCAASGVTVSSNYMNWVRQAPGKGLEWVSVIYPGGTRDYSDSVKGRFTISRDSSKNTLYLQMNSLRDEDTAFYYCARDLVVYGMDVWGQGTTVTVTS
VL: DIQLTQSPSSLSASVGDRVTITCRASQGISSYLAWYQQKPGKAPKLLIYAASTLQSGVPSRFSGSGSGTDFTLTISSLQPEDFAAYYCQLLNTYPLTFGGGTKVEIK
B19: XGV026 (antibody, V domains shown)
VH: EVQLVESGGGVIQPGGSLRLSCAASEIIVSSNYMNWVRQAPGKGLEWVSVIYPGGSSFYADSVKGRFTISRDNSKNTLYLQMNSLRVEDTAVYYCARDSPHRPGTIWGQGTLVVVSS
VL: DIQMTQSPSSLSASVGDRVTITCRASQDINNYLNWYQQKPGKAPKLLIYDAFTLEAGVPSRFSGARFGTDFTFTISSLQPEDIATYYCHQCDNLPCTFGGGTKVEIK
B20: XGv264 (antibody, V domains shown)
VH: QITLKESGPTLVKPTQTLTLTCAFSGFSLNTGGAGVGWIRQPPGKALEWLALIYWDGDKRYNPSLKSRLAIIMDTSKNRVVLTMTNMDPVDTATYYCAHHKIEYIFDYWGQGTLVAVSS
VL: QSALTQPASVSGSPGQSITVSCTGTSSDLGNFQYVSWYQHHPGKAPKLLIYEVSHRPSGVSNRFSGSKSGNTASLTISGLQAEDEADYYCCSYTTTTIPVAFGGGTRLTVL

In one experiment the target is SARS-CoV-2 wild-type spike receptor-binding domain (SARS-CoV-2, WT (MN908947), UniProt P0DTC2).
For the molecule B1, the binding result is “binds”.
On the same count and under the same terms, under B2 stands “binds”.
Regarding B3, the binding result was “binds”.
Regarding B4, the binding result is given as “binds”.
The same measure, in the same setting: under B5 stands “binds”.
Same read-out and setting: under B6 stands “binds”; under B7, “binds”.
Still for that read-out and setting: under B8 stands “binds”.
Regarding B9, the binding result is reported as “binds”.
On the same count and under the same terms, under B10 stands “binds”; under B11, “binds”.
Still for that read-out and setting: under B12 stands “binds”; under B13, “binds”; under B14, “binds”.
With B15, the binding result is “binds”.
Still for that read-out and setting: under B16 stands “binds”; under B17, “binds”.
On the same count and under the same terms, under B18 stands “binds”; under B19, “binds”; under B20, “binds”.

The next experiment has as its target SARS-CoV-2 wild-type spike (S) protein (SARS-CoV-2, WT (MN908947), UniProt P0DTC2).
For B1, the binding result is “binds”.
For B2, the binding result is “binds”.
Still for that read-out and setting: under B3 stands “binds”; under B4, “binds”; under B5, “binds”.
For B6, the binding result is “binds”.
The same measure, in the same setting: under B7 stands “binds”; under B8, “binds”.
Take B9: the binding result is on record as “binds”.
On the same count and under the same terms, under B10 stands “binds”; under B11, “binds”.
Consider B12, for which the binding result is given as “binds”.
For the molecule B13, the binding result is given as “binds”.
Still for that read-out and setting: under B14 stands “binds”.
Still for that read-out and setting: under B15 stands “binds”.
The same measure, in the same setting: under B16 stands “binds”; under B17, “binds”.
As to B18, the binding result is on record as “binds”.
Same read-out and setting: under B19 stands “binds”; under B20, “binds”.
